{"source": "the DeepSol protein solubility set", "data": [{"assay": "soluble on expression in E. coli; label from the status in PepcDB or PDB records", "values": [{"sequence": "MFPNSILGHPPFTPNHQQHNNFFTLSPTVYSHQQLIDAQFNFQNADLSRAVSLQQLTYGNVSPIQTSASPLFRGRKRLSDEKNLPLDGKRQRFHSPHQEPTVVNQIVPLSGERRYSMPPLFHTHYVPDIVRCVPPFREIAFLEPREITLPEAKDKLSQQILELFETCQQQISDLKKKELCRTQLQREIQLLFPQSRLFLVGSSLNGFGTRSSDGDLCLVVKEEPCFFQVNQKTEARHILTLVHKHFCTRLSGYIERPQLIRAKVPIVKFRDKVSCVEFDLNVNNIVGIRNTFLLRTYAYLENRVRPLVLVIKKWASHHQINDASRGTLSSYSLVLMVLHYLQTLPEPILPSLQKIYPESFSPAIQLHLVHQAPCNVPPYLSKNESNLGDLLLGFLKYYATEFDWNSQMISVREAKAIPRPDGIEWRNKYICVEEPFDGTNTARAVHEKQKFDMIKDQFLKSWHRLKNKRDLNSILPVRAA", "soluble on expression in E. coli": "not soluble"}, {"sequence": "MFPYYQRQCPTGSVPYTIKAGDTLAAIARIYGTTVQDIINANPDIDPYYLRVGQQICIPLTMQIYPSCPTTNYYVVRPEDTLESIAAYFNITPQQLLYSNYGIDPTDLYVDQILCIPVAPPPVTVNVNVAERTLTVYRDGRIYRTYRIALENPASPIPRGTFTVLNKQVDPGVEMGARWIGLSEAGFGIHGTNTPEFIDVVSTGNSIVMSNEDVSELFNLVPVGTIVTIS", "soluble on expression in E. coli": "soluble"}, {"sequence": "MFQKLLAFLTVVVFVSAAGNSCKIGKVINKPVIDGTPVYWPASWNETQPAPQLEKEQSCSWYVTIPRGYYAKLIISGKTTDKDSRFQTVDSAGNLIQTTHEKMVPYYFPASKFTLAVSNEGSATFAFKVVWWPLPTEKYVDIVASIGQVINVTETVVAMEYAAPGGITLLTFPEDLKNYNSLRSTLIYDGSSLTSATYVSNLFLLNQSKKQWTSSQDGIVVVNVEASRSMNKLLIQGSVYLAGIDEIVELHPQPNSIYNGTVNAGAHMSSLVAVSDLELQMIDVQMKDDSTVSVYYGSPDAFTLDKTYTGAELKKALPLPFGGYFVQFVVSSGKAVFTFKS", "soluble on expression in E. coli": "not soluble"}, {"sequence": "MFQLSVQDIHPGEKAGDKEEAIRQVAAALVQAGNVAEGYVNGMLAREQQTSTFLGNGIAIPHGTTDTRDQVLKTGVQVFQFPEGVTWGDGQVAYVAIGIAASSDEHLGLLRQLTHVLSDDSVAEQLKSATTAEELRALLMGEKQSEQLKLDNEMLTLDIVASDLLTLQALNAARLKEAGAVDATFVTKAINEQPLNLGQGIWLSDSAEGNLRSAIAVSRAANAFDVDGETAAMLVSVAMNDDQPIAVLKRLADLLLDNKADRLLKADAATLLALLTSDDAPTDDVLSAEFVVRNEHGLHARPGTMLVNTIKQFNSDITVTNLDGTGKPANGRSLMKVVALGVKKGHRLRFTAQGADAEQALKAIGDAIAAGLGEGA", "soluble on expression in E. coli": "soluble"}, {"sequence": "MFQQQNDWETRENAFAAFAMGPLTDFWRQREEAEFIGVGNIPVRFVRFRNDSNDRTIVICPGRIESYVKYAELAYDLFHLGFDIFIIDHRGQGRSGRMLSDPHRGHVDHFNDYVEDLAAFWQQEIEPGPWRKRYILAHSMGGAIATLFLQRHRVRCDAIALTAPMFGIVIRLPSFMVRHILDWAEGHQRIREDYAIGTGQWRALPFGMNALTHSRQRYQRNLRFYADEPQLRVGGPTWHWVREGILAGEQVLAGASDDTTPTLLIQAEEERVVDNRTHDRFCEIRAAAGYPCEGGKPLVIKGAYHEILFEKDAMRSVALNAIVEFFNKPNLSSGNRFA", "soluble on expression in E. coli": "not soluble"}, {"sequence": "MFSILLPTWNNLALLKLCVQSIRAHSAHDHQIIVHVNDGSDGTLAWVREQGLDHTHSPGNVGICLAVNESAMLARHDYIVYLNDDMVCCPGWDTALLRRLDTLDTDLFMLSGTMIEPVDTGNPCVVVGNYGRDADTFDAARLLADVPRLARGDWLGATWPPTLVHRRWWFKLGGYSSELTPGMSSDNDFSMKLWHAGCRIFLGAGDSLVYHFQCKSTGKVKKNDGRRQFLNKWGLSQSTFDKYFLRRGTPAGADWRLPEPELTSALRWDLRRNDLTRRLRPGVPVLLEHHHHHH", "soluble on expression in E. coli": "soluble"}, {"sequence": "MFSIPPLPWGYDGLAAKGLSKQQVTLHYDKHHQGYVTKLNAAAQTNSALATKSIEEIIRTEKGPIFNLAAQIFNHTFYWESMCPNGGGEPTGKVADEINASFGSFAKFKEEFTNVAVGHFGSGWAWLVKDTNSGKLKVYQTHDAGCPLTEPNLKPLLTCDVWEHAYYVDYKNDRAAYVQTFWNVVNWKNVERQL", "soluble on expression in E. coli": "soluble"}, {"sequence": "MFSKSSNRFGTTSIFGDQSIKDEYRNRQRRLSLIGGPISGTSPNRRESLVRELRTVSLHQYTEDPTLAWEMLKEKRPVKPVRQMRLDTPVKPDHVRFVCIGCTHGEQFDISKLPPGDVLLVAGDFTSCGLPNEVHNFNKLLGKLKYSYKVVIGGNHECTFDDTFLKLKQESEPKEMALKQALLSAIHSDSKGGISAKDLLSNAIYLEDNVIELFGITIYGTPWQPKVDNWAFNLSRGQQLLDKWNLIPAALTCF", "soluble on expression in E. coli": "not soluble"}, {"sequence": "MFSPVKSTKVYEQIIEQFKIMIANGTLKKGDKLPSERELVSQLGVSRASIREALSALQMIGFVEARHGEGNFIRENFEESLIDPFLLIFMLNGSNKEQILELRRIIEVETAALAAKKITDEEVKELEVCLENLTEAENETLKGKYDKKFHYNIAKASKNILIVNMLNAVSSLMDSFISEARGRILMVEDNKNVLMKQHRSMLEALKNHDSKAASNAMSEHLDLIYEYIIKK", "soluble on expression in E. coli": "not soluble"}, {"sequence": "MFSQWVFLSVLALAVPSFAWAEDAVSDLAREQSKAEQGDKRGDELFAEFTRLRQAAETGEPQALFDFGAYFYQQQNYASAREWWGKAAAAGMVRAQIQLAMLYRDGDGGPQDKTEAARWFRKAAEQGDAAAQNEMGVLYWRGEGVDQDRVKAGTWFERAAASGSEDAETNLGWFYLDDSQGVYSATSDEEAALLDRYAGSREKAFQWFCKAATQGDARAQFKVGEAYWNGSGAGMNKLQARLWLEKAAQQQDADAIAWLESAANAAWYTRLENWIHAALDGELSGVADCSGAADRRHSGRGMEGAPSDPEAVEASAEDAQQAVEAASQ", "soluble on expression in E. coli": "not soluble"}, {"sequence": "MFSRDRVAYTDLTVNSACDDLFPGVEDVDAQATLQLRAALDAFEEGVFEYHNRASQAGEADAGKHSARGGGQRRTRREKIYASRIPEDRQFFRPVDQQSAEWAAFKPHLWLRGRRIHSADAAAHAGQHHHLHHHTPAGAPQAQQPALAASPVHAGAGLPAGTAGAGADAGAGAGTGAGLELRGTRAVLAPPPPEAEDAADPDRECVLVDHGDFAESLAVQWDAWEAAATRGGPQALRRRRGRPRDEKAVAVGLPPVEPRSAILYDVAEELLPDVWQRLAPLLAPLLARVAEERKKRPASSAAAAFRGAGAGGGGGGGLGGGSFGGGDFEILTFS", "soluble on expression in E. coli": "not soluble"}, {"sequence": "MFSSSALSYINGFCFSTAGYSPEFCHAVRFVLIEEGALNQDGTPKPNLGYVNDPKDKGGETKGGISKRAFPNIDIAALTLDGIVALYHRYFWKPAYCQDWPASVALYTFDAAVQHGVTNALLMLQEIAGTKADGKVGPATRNAVNSADKEYLCARYGLRRARFYARIIKKDTSQTRFIEGWHNRLVNLTNAAWELQ", "soluble on expression in E. coli": "soluble"}, {"sequence": "MFSVLLSVYYNESPYYFRQSIDSLFNQSLQLAEVVLVKDGELTPELENVITEYTAKYLQIRVVPLKQNQGLGKALNEGLKHCSYDLVARMDTDDIAKPNRFEKQIRVFQEHPELDVVGAWIDEFEETTSNIISTRKLPEVHDDICQFAKKRNPENHPVIMFRKQAVLAAGGYQHFPLFEDYYLWIRMLQNGAKFYNIQESLLYFRFSSAMFKRRGGLKYVTTELRFQNLLRNLEFITFSEYLYNVFIRVITRMMPNSLRAILYKKALRK", "soluble on expression in E. coli": "not soluble"}, {"sequence": "MFTAKLIKGKTYNVMGITFRAGVSQTVPKKLYEYLNENPYFILTQELNNQKDDPINYTESELKGMNKAEHESIISNLGRNPSDFKNADERIAYILKQIDNKGELEHHHHHH", "soluble on expression in E. coli": "soluble"}, {"sequence": "MFVAREHELQVLEKLFTSDSFEMVVLYGRRRVGKTALIDEFVKDKRVLYFTAIQQSAKMNLEDFSRAALSFFGMPDSTPSFGGWSDALSFVAERAAQTDERMVFVFDEFPYAAAAEPALPSMLQIAIDHGFLATKVTMILSGSNEGFMENDVLGRKSPLYGRRTAQIRLLPFDYADAAKFLTNTSPQELVQYYATFGGTPYYLARIQEADGFESNVLRLMFDNLGVLREEPMMLLRQELREPASYYSILQSIAGGNSSPKLIAEHAGVGSDSIGAYLKTLVDLRLIERKVPFGEDPSKSRKGMYVVSDPFFAYWFRFVGRNMSILDGNISEEVTSRLAFGPAFDTYVGQQFETICLQWLIRNNAMGNLPFVATQFGKWWGNDPIAHEQTDIDVIAADSLDKTILFGECKWRNSFNETEAIEKLHQRAGLVRGYQAGNAWLMLFTKNPVSESTRTRYMDDERMVFVSAEELYTALEHHHHHH", "soluble on expression in E. coli": "not soluble"}, {"sequence": "MFVDQVKISLKAGDGGNGITAYRREKYVPFGGPAGGDGGKGASVVFEVDEGLRTLLDFRYQRHFKASKGENGQSSNMHGKNAEDLVLKVPPGTIIKNVETDEVLADLVEDGQRAVVAKGGRGGRGNSRFATPRNPAPDFSEKGEPGEELDVSLELKLLADVGLVGFPSVGKSTLLSIVSKAKPKIGAYHFTTIKPNLGVVSTPDQRSFVMADLPGLIEGASDGVGLGHQFLRHVERTKVIVHMIDMSGSEGREPIEDYKVINQELAAYEQRLEDRPQIVVANKMDLPESQDNLNLFKEEIGEDVPVIPVSTITRDNIDQLLYAIADKLEEYKDVDITVEEEESVGINRVLYKHTPSQDKFTISRDDDGAYVVSGNAIERMFKMTDFNSDPAVRRFARQMRSMGIDDALRERGCKNGDIVRILGGEFEFVE", "soluble on expression in E. coli": "not soluble"}, {"sequence": "MFVDREEELKALNEKLDSNNFEFIVIYGRRRIGKTKLALKSVENREHIYYLAVEGDNLKHFKRYASKVEPTIEYAKEDWEAYFNFLKDKIIIIDEFPNLIKENPNVLSLFQRIVDIHLKNTKTKLIILGSSISMMGEKVLSYKSPLYGRKTGVLKIKPLKFKHLKEFFPKAIWEELVEIYGFADGIPYYLEKVKLPFWDYLDKEIKRVDSFLRYEVDFLMKYEFEEPTTYKKILEAIAFGNHTLGEIKNYLGFKHSDLTPYLKNLIEVEFIERQTPITESVKSKKGRYYIKDNFIAFYFRYIFPNLSAIEEGIFDIEEIKADYNQYLGFVFEKVAKEFLIELNKMNKLPFKFLKIGRWWHRGEEIDLIALNDNDKKALFVEVKWKDLKDRDVKKIYRDLYRKSKLVGLDDYEKYYAIVGKKIESKENGDCLLFDLEDFSLEHHHHHH", "soluble on expression in E. coli": "soluble"}, {"sequence": "MFVRVMKIAQNKKIVTVYPTTTIRKALMTMNENKYRRLPVVNAGNNKVVGIITSMDIVDFMGGGSKYNLIREKHERNFLAAINEPVREIMEENVITLKENADIDEAIETFLTKNVGGAPIVNDENQLISLITERDVIRALLDKIDENEVIDDYITRDVIVATPGERLKDVARTMVRNGFRRLPVVSEGRLVGIITSTDFIKLLGSDWAFNHMQTGNVREITNVRMEEIMKRDVITAKEGDKLKKIAEIMVTNDIGALPVVDENLRIKGIITEKDVLKYFA", "soluble on expression in E. coli": "soluble"}, {"sequence": "MFYAQFVLAKKGPLAKVWLAAHWEKKLTKAQIFETDVPQAIEEVIRPKVKMALRTVGHLLLGIVRIYSKKTRYLLADTNEAYQKMKINFRNGFSFEVDIPENAEIEEDFSNFIDKYNITVPEFHDADYNEQLIMANVSRREDITMKETVNFNVEFNIDADFDGFGDEGESWQLDHLYGSVEPLSLRPTPQPESLMEVERDRDVAANGTEISRIDADSVIFSEGPTRPNLIFDNQEGGNFMPEMNLKVENQTLENDGGVGPADMFSSMIHPVREHAVADVQNDDGMDFDYQPFEPENVEPSRPQSPESFALEPLDVEHMEGRKKRQRKARKLIVDAETMISNDAFREQQEDFSDTMRVVEMAPPTRKMFNLCVSGDLQHLSREPGCKMFNRELLQRYRRCLVTREFDLNYTMQELSDSSSFTPSMEAQAEPWEDLNLNEDIQEDIQAQGPAVDEFFNDVRMDDDDDRQPAQEMDFGDNFDFPQEVEHQECAPIPIQSGFAGENKENEDAEDWSDPFGSSNSSRRGQLEAYGFGNTSTYKEDDGKWAKRAKHILKKVSADIETSGQADFSSVTATAKNRKQAAEQFYSLLTLAKSQAISVDQSEPYGEIVIRPGANFKEACPLSSPKPMGLGNTMENSTMRTPMRPV", "soluble on expression in E. coli": "not soluble"}]}]}
